Patent publication US20230192815A1

How the values were obtained:
[1] = target: Canine parvovirus CPV-2c (TS02 strain), purified virus (canine parvovirus CPV-2c, TS02 strain); assay: indirect ELISA, purified CPV coated, serum dilution 1:1000; control of the third immunization serum
[2] = target: Canine parvovirus CPV-2c (TS02 strain), purified virus (canine parvovirus CPV-2c, TS02 strain); assay: indirect ELISA, purified CPV coated, serum dilution 1:5000; control of the third immunization serum
[3] = target: Canine parvovirus CPV-2c (TS02 strain), purified virus (canine parvovirus CPV-2c, TS02 strain); assay: indirect ELISA, purified CPV coated, serum dilution 1:1000; control of the fourth immunization serum
[4] = target: Canine parvovirus CPV-2c (TS02 strain), purified virus (canine parvovirus CPV-2c, TS02 strain); assay: indirect ELISA, purified CPV coated, serum dilution 1:25000; control of the third immunization serum
[5] = target: Canine parvovirus CPV-2c (TS02 strain), purified virus (canine parvovirus CPV-2c, TS02 strain); assay: indirect ELISA, purified CPV coated, serum dilution 1:5000; control of the fourth immunization serum
[6] = target: Canine parvovirus CPV-2c (TS02 strain), purified virus (canine parvovirus CPV-2c, TS02 strain); assay: indirect ELISA, purified CPV coated, serum dilution 1:25000; control of the fourth immunization serum
[7] = target: Canine parvovirus CPV-2c (TS02 strain), purified virus (canine parvovirus CPV-2c, TS02 strain); assay: indirect ELISA, purified CPV coated, serum dilution printed 1:1250000 (text: 125,000 times); control of the third immunization serum
[8] = target: Canine parvovirus CPV-2c (TS02 strain), purified virus (canine parvovirus CPV-2c, TS02 strain); assay: indirect ELISA, purified CPV coated, serum dilution printed 1:1250000 (text: 125,000 times); control of the fourth immunization serum
[9] = target: Canine parvovirus CPV-2c (TS02 strain), purified virus (canine parvovirus CPV-2c, TS02 strain); assay: cell-based or functional assay
[10] = target: Canine parvovirus CPV-2c (TS02 strain), purified virus (canine parvovirus CPV-2c, TS02 strain); assay: indirect ELISA, purified CPV coated, nanobody dilution 1:10, anti-His-HRP
[11] = target: Canine parvovirus CPV-2c (TS02 strain), purified virus (canine parvovirus CPV-2c, TS02 strain); assay: indirect ELISA, purified CPV coated, nanobody dilution 1:100, anti-His-HRP
[12] = target: Canine parvovirus CPV-2c (TS02 strain), purified virus (canine parvovirus CPV-2c, TS02 strain); assay: indirect ELISA, purified CPV coated, nanobody dilution 1:1000, anti-His-HRP
[13] = target: Canine parvovirus CPV-2c (TS02 strain), purified virus (canine parvovirus CPV-2c, TS02 strain); assay: indirect ELISA, purified CPV coated, nanobody dilution 1:10000, anti-His-HRP

neutralization titer (CPV neutralization assay, CPE on CRFK cells) (titer (1:x dilution)) [9]	mean OD450 nm [10] [OD450 nm]	mean OD450 nm [11] [OD450 nm]	mean OD450 nm [12] [OD450 nm]	mean OD450 nm [13] [OD450 nm]	Molecule	mean OD450 nm [1] [OD450 nm]	mean OD450 nm [2] [OD450 nm]	mean OD450 nm [3] [OD450 nm]	mean OD450 nm [4] [OD450 nm]	mean OD450 nm [5] [OD450 nm]	mean OD450 nm [6] [OD450 nm]	mean OD450 nm [7] [OD450 nm]	mean OD450 nm [8] [OD450 nm]
					Negative serum of non-immunized alpaca	0.158	0.071	0.371	0.048	0.16	0.083	0.044	0.067
< 10	2.56	2.46	0.28	0.1	CPV nanobody CPV-VHH-H1 (VHH) VHH: QVQLVESGGGLAQPGGSLRLSCAASGAIDSISAMRWFRQPPGKQRAVVASITSDGVTTYADSVKGRFTISRDNAENTLYLQMNSLKTEDTGVYYCYAALKGYSSGVVAASWGQGTQVTVSG								
